Patent US20230056336A1 (KYVERNA THERAPEUTICS, published 2023)
Residue numbers refer to the chain shown, from its start. Names and notes keep the numbering of the source.

B1: CD25 L2F mutant (CD25-Fc) (Fc fusion)
chain: EFCDDDPPEIPHATFKAMAYKEGTMLNCECKRGFRRIKSGSLYMLCTGNSSHSSWDNQCQCTSSATRNTTKQVTPQPEEQKERKTTEMQSPMQPVDQASLPGHCREPPPWENEATERIYHFVVGQMVYYQCVQGYRALHRGPAESVCKMTHGKTRWTQPQLICTGEMETSQFPGEEKPQASPEGRPESETSCLVTTTDFQIQTEMAATMETSIFTTEYQ
notes: not shown: Fc part of CD25-Fc
B2: CD25 L2I mutant (CD25-Fc) (Fc fusion)
chain: B1 chain with F2I
notes: not shown: Fc part of CD25-Fc
B3: CD25 S41E mutant (CD25-Fc) (Fc fusion)
chain: B1 chain with F2L, S41E
notes: not shown: Fc part of CD25-Fc
B4: CD25 L42I mutant (CD25-Fc) (Fc fusion)
chain: B1 chain with F2L, L42I
notes: not shown: Fc part of CD25-Fc
B5: CD25 T47S mutant (CD25-Fc) (Fc fusion)
chain: B1 chain with F2L, T47S
notes: not shown: Fc part of CD25-Fc
B6: CD25 Y43R mutant (CD25-Fc) (Fc fusion)
chain: B1 chain with F2L, Y43R
notes: not shown: Fc part of CD25-Fc
B7: CD25 L42G mutant (CD25-Fc) (Fc fusion)
chain: B1 chain with F2L, L42G
notes: not shown: Fc part of CD25-Fc
B8: CD25 L42A mutant (CD25-Fc) (Fc fusion)
chain: B1 chain with F2L, L42A
notes: not shown: Fc part of CD25-Fc
B9: CD25 S41D mutant (CD25-Fc) (Fc fusion)
chain: B1 chain with F2L, S41D
notes: not shown: Fc part of CD25-Fc
B10: CD25 L42Y mutant (CD25-Fc) (Fc fusion)
chain: B1 chain with F2L, L42Y
notes: not shown: Fc part of CD25-Fc
B11: CD25 S41N mutant (CD25-Fc) (Fc fusion)
chain: B1 chain with F2L, S41N
notes: not shown: Fc part of CD25-Fc
B12: CD25 T47N mutant (CD25-Fc) (Fc fusion)
chain: B1 chain with F2L, T47N
notes: not shown: Fc part of CD25-Fc
B13: CD25 T47D mutant (CD25-Fc) (Fc fusion)
chain: B1 chain with F2L, T47D
notes: not shown: Fc part of CD25-Fc
B14: CD25 L42W mutant (CD25-Fc) (Fc fusion)
chain: B1 chain with F2L, L42W
notes: not shown: Fc part of CD25-Fc
B15: CD25 L42F mutant (CD25-Fc) (Fc fusion)
chain: B1 chain with F2L, L42F
notes: not shown: Fc part of CD25-Fc
B16: CD25 L42V mutant (CD25-Fc) (Fc fusion)
chain: B1 chain with F2L, L42V
notes: not shown: Fc part of CD25-Fc
B17: CD25 L2Y mutant (CD25-Fc) (Fc fusion)
chain: B1 chain with F2Y
notes: not shown: Fc part of CD25-Fc
B18: CD25 S41Q mutant (CD25-Fc) (Fc fusion)
chain: B1 chain with F2L, S41Q
notes: not shown: Fc part of CD25-Fc

The binders below were run against T1, basiliximab fab (assay: BLI; CD25-Fc on anti-hFc biosensor, basiliximab Fab in solution; global 1:1 fit;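 further: biolayer interferometry signals normalized against a reference probe and smoothed with a Savitzky-Golay filter before the global fit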).
T1 construct: The assay used a Fab of basiliximab; Chimeric antibody: human IgG1 constant, mouse variable domains
T1 sequence (VH, as listed by the source limits assumed, chain 1 of 2): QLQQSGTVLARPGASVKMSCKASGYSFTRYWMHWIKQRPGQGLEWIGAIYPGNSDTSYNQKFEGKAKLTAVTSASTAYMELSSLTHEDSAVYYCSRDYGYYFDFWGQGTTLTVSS
T1 sequence (VL, as listed by the source limits assumed, chain 2 of 2): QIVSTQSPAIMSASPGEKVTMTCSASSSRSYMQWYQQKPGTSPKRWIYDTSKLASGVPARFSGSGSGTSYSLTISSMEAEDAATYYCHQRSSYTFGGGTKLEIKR
Procedure: Briefly, binding affinity (KD) of CD25 mutants from Table 1 was measured using biolayer interferometry. […] Experimental data was normalized to a reference probe and high-frequency noise was removed by Savitzky-Golay filtering. On and off-rate constants were determined using a globally fitted 1:1 binding model.

Row | Kd [nM] | koff [s⁻¹] | kon [M⁻¹ s⁻¹] | Binder
1 | 1.07 | 0.00252 | 2.36e+06 | B1
2 | 3.46 | 0.000734 | 212000 | B2
3 | 6.08 | 0.00719 | 1.18e+06 | B3
4 | 23.3 | 0.0116 | 499000 | B4
5 | 4.49 | 0.00588 | 1.31e+06 | B5
6 | 1.39 | 0.000399 | 236000 | B6
7 | 1.14 | 0.000152 | 133000 | B7
8 | 0.242 | 2.49e-05 | 103000 | B8
9 | 6.49 | 0.00708 | 1.09e+06 | B9
10 | 1.75 | 0.000325 | 186000 | B10
11 | 3.85 | 0.00707 | 1.84e+06 | B11
12 | 12.8 | 0.00776 | 608000 | B12
13 | 3.66 | 0.00787 | 2.15e+06 | B13
14 | 1.04 | 0.000201 | 194000 | B14
15 | 7.65 | 0.000772 | 101000 | B15
16 | 3.93 | 0.000748 | 190000 | B16
17 | 1.51 | 0.00263 | 1.75e+06 | B17
18 | 5.25 | 0.00512 | 975000 | B18
